Reference: article PMC3283998 (The Journal of Cell Biology, 2012)
Where no end group is shown, it is not given here.

T1: Bub1(1–150) (human, UniProt O43683 1-150)
T1 sequence (looked up): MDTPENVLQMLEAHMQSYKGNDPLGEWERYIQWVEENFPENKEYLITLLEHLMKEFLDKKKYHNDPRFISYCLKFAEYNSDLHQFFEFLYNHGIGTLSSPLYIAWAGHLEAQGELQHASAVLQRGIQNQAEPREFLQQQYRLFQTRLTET


What was measured:
Bub1(1–150) = target: T1, Bub1(1–150); experiment: fluorescence polarisation
BubR1(1–204) = BubR1(1–204) (human, UniProt O60566 1-204); experiment: fluorescence polarisation
Sequence of BubR1(1–204) (O60566 1-204): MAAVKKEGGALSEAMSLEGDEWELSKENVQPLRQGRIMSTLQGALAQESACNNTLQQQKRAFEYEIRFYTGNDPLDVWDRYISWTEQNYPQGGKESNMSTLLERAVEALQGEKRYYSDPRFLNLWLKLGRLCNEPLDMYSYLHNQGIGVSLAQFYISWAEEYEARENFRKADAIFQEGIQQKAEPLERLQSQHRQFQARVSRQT

| Binder | Kd (Bub1(1–150)) [µM] | Kd (BubR1(1–204)) [µM] |
| --- | --- | --- |
| STKIDTTSFLANLKLHT (peptide, UniProt Q8NG31-2 174-190, looked up, also: fluorescein (5-FAM) label, position not given here) [Fluorescein (5-FAM)-labeled Knl1(174–190) peptide] | ~35 |  |
| ENKIDFNDFIKRLKTGK (peptide, UniProt Q8NG31-2 210-226, looked up, also: 5-FAM label, position not given here) [5-FAM–labeled synthetic peptide Knl1(210–226)] |  | 0.45 |
